In patent US20130266516, “LAR Protein-Specific Ligand” (COMMISSARIAT A L'ENERGIE ATOMIQUE ET AUX ENERGIES, published 2013):

What was measured:
Details in all cases: label: radiolabel, biotin or Alexa Fluor 647/680
[1] = molecular target: T1, LAR protein (PTPRF, receptor-type protein tyrosine phosphatase F), endogenous on human cell lines (Homo sapiens, UniProt P10586 SEQ:30-1907); assay: A-431 whole cells, Scatchard; Cmax 455 pM
Experimental: (§1) The binding curves were obtained for each cell type. From the specific binding, and using the Scatchard representation, the Kd and the Cmax were calculated for each cell type. Knowing the Cmax and the number of cells during the binding, the inventors were able to deduce therefrom an approximate number of targets per cell.

[2] = molecular target: T1, LAR protein (PTPRF, receptor-type …); assay: MCF-7 whole cells, Scatchard analysis of radioligand-type cell binding; Cmax 251 pM
Experimental: as §1

[3] = molecular target: T1, LAR protein (PTPRF, receptor-type …); assay: HEK293-KDR whole cells, Scatchard; Cmax 119 pM
Experimental: as §1

[4] = molecular target: T1, LAR protein (PTPRF, receptor-type …); assay: MDA-MB-231 whole cells, Scatchard; Cmax 131 pM
Experimental: as §1

[5] = molecular target: T1, LAR protein (PTPRF, receptor-type …); assay: HEK293 whole cells, Scatchard; Cmax 264 pM
Experimental: as §1

T1 sequence (P10586 30-1907): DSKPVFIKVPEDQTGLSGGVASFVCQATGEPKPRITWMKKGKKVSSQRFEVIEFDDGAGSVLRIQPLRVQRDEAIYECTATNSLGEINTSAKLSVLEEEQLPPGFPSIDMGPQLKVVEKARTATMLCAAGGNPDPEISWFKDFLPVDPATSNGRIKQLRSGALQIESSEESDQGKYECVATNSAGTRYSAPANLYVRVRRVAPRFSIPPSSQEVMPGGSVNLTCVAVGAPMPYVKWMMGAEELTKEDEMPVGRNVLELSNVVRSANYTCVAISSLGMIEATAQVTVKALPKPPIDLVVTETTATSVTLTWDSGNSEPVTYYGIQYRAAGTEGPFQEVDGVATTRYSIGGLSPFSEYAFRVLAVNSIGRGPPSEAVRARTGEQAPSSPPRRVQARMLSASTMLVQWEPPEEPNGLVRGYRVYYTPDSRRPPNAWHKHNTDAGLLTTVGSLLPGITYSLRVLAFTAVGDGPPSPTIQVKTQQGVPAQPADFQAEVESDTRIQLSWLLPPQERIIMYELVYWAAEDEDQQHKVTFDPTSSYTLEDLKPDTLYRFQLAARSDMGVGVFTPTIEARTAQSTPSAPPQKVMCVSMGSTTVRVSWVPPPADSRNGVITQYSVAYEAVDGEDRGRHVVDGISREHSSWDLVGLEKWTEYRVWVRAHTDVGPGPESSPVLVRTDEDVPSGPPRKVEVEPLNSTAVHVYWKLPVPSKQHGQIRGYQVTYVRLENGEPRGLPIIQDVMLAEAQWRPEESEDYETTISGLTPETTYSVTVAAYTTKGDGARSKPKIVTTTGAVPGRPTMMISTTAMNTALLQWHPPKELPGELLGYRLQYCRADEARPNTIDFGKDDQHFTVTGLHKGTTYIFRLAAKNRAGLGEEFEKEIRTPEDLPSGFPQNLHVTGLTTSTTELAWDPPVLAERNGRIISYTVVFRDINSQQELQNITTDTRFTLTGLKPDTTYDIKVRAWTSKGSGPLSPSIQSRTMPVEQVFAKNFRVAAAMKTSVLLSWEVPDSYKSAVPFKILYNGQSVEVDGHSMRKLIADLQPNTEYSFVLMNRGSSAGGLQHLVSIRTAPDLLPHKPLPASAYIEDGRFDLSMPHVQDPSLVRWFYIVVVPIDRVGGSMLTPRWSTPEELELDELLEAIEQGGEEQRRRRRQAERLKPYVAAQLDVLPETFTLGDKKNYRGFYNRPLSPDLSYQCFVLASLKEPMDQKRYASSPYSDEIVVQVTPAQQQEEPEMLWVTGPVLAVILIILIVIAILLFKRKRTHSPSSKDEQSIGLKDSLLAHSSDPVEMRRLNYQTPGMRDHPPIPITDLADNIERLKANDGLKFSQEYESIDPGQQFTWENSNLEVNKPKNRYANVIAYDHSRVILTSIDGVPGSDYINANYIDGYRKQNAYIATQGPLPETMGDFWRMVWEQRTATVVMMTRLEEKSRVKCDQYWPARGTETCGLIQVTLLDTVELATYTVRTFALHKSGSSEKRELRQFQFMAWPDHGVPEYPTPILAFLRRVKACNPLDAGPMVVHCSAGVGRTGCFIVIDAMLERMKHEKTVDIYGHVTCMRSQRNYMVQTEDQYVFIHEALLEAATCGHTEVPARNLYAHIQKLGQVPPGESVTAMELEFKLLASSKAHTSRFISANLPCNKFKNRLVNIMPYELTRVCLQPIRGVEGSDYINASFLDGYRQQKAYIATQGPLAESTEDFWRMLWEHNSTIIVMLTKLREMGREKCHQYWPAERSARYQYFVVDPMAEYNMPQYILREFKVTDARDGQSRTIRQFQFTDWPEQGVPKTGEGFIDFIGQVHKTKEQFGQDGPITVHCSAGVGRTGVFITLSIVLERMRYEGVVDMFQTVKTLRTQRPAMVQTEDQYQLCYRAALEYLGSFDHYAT

B1: V8 aptamer (ssRNA)
RNA: GGGAGAUGCUCUGUCAGACUACGACUGUCCCAGUAUGACGCGACUGCUUAGGUGGGAUGUUUCCCAUGCCUCGACUGGCUGGCAGGUUGAUGACAAG
modifications: 2'-F on all pyrimidines, 2'-OH purines
For B1, the Kd [1] was 5.6 nM, the Kd [2] was 1.6 nM and the Kd [3] was 5.3 nM. It also gave a Kd [4] of 3 nM and a Kd [5] of 3.8 nM.
